Literature values in US7723472B2, “Extracellular matrix binding chimeric proteins and methods of use thereof” (The Regents of the University of California, priority 2005, dated 2010).

Settings: published value for yCD, Kievit et al. 1999

B1: yCD: Yeast cytosine deaminase (protein, UniProt Q12178 1-158, looked up)
Cytosine deaminase: MVTGGMASKWDQKGMDIAYEEAALGYKEGGVPIGGCLINNKDGSVLGRGHNMRFQKGSATLHGEISTLENCGRLEGKVYKDTTLYTTLSPCDMCTGAIIMYGIPRCVVGENVNFKSKGEKYLQTRGHEVVVVDDERCKKIMKQFIDERPQDWFEDIGE
For B1, the Km is listed as 800 µM and the Vmax is listed as 68 μM/min/μg enzyme.
